{"source": "paper doi:10.1101/2024.11.10.622895", "target": "tail tube protein (TTP) of Bacillus subtilis bacteriophage SPR (Bacillus subtilis bacteriophage SPR)", "assay": "cryo-EM structure", "note": "“And” between values parts separate entries of the source, which are not always exact repeats. Equal entries are not always repeated.", "data": [{"substance": "tail tube protein (TTP) of Bacillus subtilis bacteriophage SPR (natural protein)", "values": [{"measurement": "stoichiometry N", "value": "5 and 6"}]}]}
